Source: US20250136720A1 (Boehringer Ingelheim, published 2025)

B1: CD137 #3 (B21.V22) + FAP #3 (A11 VK7/VH1) (bispecific antibody, human IgG1, kappa, L234A L235A)
heavy: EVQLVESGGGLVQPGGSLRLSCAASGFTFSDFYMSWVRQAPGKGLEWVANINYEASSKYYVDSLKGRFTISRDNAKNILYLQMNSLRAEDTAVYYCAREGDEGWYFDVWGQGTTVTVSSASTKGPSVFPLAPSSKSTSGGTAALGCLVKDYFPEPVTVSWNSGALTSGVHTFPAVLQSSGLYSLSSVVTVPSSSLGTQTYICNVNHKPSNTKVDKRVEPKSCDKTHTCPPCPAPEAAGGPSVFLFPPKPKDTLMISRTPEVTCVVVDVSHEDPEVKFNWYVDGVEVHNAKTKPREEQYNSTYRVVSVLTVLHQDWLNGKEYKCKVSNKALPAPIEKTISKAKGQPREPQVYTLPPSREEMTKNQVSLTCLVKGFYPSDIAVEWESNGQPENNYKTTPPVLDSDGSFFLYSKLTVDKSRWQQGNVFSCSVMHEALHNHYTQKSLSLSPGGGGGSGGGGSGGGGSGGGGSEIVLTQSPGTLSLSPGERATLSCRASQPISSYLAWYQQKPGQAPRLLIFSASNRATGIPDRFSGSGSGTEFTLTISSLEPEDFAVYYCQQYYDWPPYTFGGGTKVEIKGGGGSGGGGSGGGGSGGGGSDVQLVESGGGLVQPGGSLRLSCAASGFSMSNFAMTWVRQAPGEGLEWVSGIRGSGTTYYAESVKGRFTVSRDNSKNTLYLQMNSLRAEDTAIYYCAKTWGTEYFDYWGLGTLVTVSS
light: DIQMTQSPSSLSASVGDRVTITCRASQSVSSALAWYQQKPGKAPKLLIYAASYRQSGVPSRFSGSGSGTDFTLTISSLQPEDFAVYYCQQHYSNPWTFGQGTKLEIKRTVAAPSVFIFPPSDEQLKSGTASVVCLLNNFYPREAKVQWKVDNALQSGNSQESVTEQDSKDSTYSLSSTLTLSKADYEKHKVYACEVTHQGLSSPVTKSFNRGEC
B2: CD137 #3 (B21.V22) + FAP #2 (A11 VK3/VH3) (bispecific antibody, human IgG1, kappa, L234A L235A)
heavy: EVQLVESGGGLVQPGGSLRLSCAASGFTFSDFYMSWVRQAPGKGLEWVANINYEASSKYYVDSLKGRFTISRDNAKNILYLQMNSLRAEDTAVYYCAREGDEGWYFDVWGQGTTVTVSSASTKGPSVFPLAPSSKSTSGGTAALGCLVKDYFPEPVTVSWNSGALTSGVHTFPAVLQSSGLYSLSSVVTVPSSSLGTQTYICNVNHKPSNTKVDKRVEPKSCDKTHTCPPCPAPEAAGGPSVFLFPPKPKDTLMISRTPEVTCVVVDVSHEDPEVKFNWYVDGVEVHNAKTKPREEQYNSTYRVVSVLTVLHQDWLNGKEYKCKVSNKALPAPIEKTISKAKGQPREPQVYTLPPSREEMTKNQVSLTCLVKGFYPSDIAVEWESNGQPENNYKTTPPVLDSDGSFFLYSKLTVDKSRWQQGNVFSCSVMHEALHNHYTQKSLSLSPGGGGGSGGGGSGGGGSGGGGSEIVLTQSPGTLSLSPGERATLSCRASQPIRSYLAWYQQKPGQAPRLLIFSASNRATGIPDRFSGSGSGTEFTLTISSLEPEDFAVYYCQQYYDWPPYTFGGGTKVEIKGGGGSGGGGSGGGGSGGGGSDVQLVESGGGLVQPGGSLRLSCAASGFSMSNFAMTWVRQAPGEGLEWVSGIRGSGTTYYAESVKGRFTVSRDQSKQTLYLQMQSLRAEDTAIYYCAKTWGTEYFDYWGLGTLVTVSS
light: DIQMTQSPSSLSASVGDRVTITCRASQSVSSALAWYQQKPGKAPKLLIYAASYRQSGVPSRFSGSGSGTDFTLTISSLQPEDFAVYYCQQHYSNPWTFGQGTKLEIKRTVAAPSVFIFPPSDEQLKSGTASVVCLLNNFYPREAKVQWKVDNALQSGNSQESVTEQDSKDSTYSLSSTLTLSKADYEKHKVYACEVTHQGLSSPVTKSFNRGEC
B3: CD137 #4 (B21.V25) + FAP #2 (A11 VK3/VH3) (bispecific antibody, human IgG1, kappa, L234A L235A)
heavy: not shown
light: DIQMTQSPSSLSASVGDRVTITCRASQSISTAVAWYQQKPGKAPKLLIYAASYLYSGVPSRFSGSGSGTDFTLTISSLQPEDFAVYYCQQHYSNPWTFGQGTKLEIKRTVAAPSVFIFPPSDEQLKSGTASVVCLLNNFYPREAKVQWKVDNALQSGNSQESVTEQDSKDSTYSLSSTLTLSKADYEKHKVYACEVTHQGLSSPVTKSFNRGEC
B4: CD137 #3 (B21.V22) + FAP #5 (C3 VK1/VH4) (bispecific antibody, human IgG1, kappa, L234A L235A)
heavy: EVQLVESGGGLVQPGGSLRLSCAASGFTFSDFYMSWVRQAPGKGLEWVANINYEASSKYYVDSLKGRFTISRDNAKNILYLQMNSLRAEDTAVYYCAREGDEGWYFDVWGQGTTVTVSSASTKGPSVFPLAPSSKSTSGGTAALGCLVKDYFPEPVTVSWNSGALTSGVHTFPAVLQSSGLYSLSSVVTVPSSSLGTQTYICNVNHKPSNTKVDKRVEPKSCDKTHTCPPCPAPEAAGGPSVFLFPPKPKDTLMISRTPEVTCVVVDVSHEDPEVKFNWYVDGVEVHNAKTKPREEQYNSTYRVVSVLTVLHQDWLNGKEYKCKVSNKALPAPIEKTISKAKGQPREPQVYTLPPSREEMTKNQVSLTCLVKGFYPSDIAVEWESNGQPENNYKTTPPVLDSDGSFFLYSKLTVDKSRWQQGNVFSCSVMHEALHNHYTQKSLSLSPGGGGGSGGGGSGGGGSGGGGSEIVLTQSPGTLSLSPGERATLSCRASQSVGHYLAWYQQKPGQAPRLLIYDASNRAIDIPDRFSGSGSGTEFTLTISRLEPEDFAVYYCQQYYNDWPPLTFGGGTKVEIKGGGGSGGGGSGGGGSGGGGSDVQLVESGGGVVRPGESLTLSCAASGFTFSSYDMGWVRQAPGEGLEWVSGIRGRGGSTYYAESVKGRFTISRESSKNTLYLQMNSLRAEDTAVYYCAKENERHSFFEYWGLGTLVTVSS
light: DIQMTQSPSSLSASVGDRVTITCRASQSVSSALAWYQQKPGKAPKLLIYAASYRQSGVPSRFSGSGSGTDFTLTISSLQPEDFAVYYCQQHYSNPWTFGQGTKLEIKRTVAAPSVFIFPPSDEQLKSGTASVVCLLNNFYPREAKVQWKVDNALQSGNSQESVTEQDSKDSTYSLSSTLTLSKADYEKHKVYACEVTHQGLSSPVTKSFNRGEC
B5: CD137 #10 (A49.V48) + FAP #3 (A11 VK7/VH1) (bispecific antibody, human IgG1, kappa, L234A L235A)
heavy: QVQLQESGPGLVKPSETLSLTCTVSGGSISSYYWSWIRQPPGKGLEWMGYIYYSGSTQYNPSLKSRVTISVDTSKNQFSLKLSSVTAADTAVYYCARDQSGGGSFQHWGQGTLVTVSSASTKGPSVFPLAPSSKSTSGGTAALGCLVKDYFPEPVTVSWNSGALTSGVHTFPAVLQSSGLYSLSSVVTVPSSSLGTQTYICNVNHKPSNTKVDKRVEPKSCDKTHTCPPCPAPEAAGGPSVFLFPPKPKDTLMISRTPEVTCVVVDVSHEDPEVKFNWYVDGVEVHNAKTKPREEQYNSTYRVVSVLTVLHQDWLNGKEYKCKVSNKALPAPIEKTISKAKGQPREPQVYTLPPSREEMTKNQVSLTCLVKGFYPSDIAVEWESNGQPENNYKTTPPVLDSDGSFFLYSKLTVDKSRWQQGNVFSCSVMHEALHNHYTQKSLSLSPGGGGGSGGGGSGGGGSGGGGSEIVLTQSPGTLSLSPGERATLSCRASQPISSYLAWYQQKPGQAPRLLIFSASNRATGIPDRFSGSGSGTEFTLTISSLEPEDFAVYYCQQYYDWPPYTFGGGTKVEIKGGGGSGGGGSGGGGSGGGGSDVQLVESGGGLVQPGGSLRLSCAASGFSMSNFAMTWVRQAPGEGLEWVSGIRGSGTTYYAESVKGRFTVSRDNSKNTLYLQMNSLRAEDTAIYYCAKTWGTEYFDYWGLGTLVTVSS
light: EIVMTQSPLSLPVTPGEPASISCRSSQSLLYSQGYNHLDWYLQKPGQSPQLLIYGGSNRASGVPDRFSGSGSGTDFTLKISRVEAEDVGVYYCMQALQTPPTFGQGTKLEIKRTVAAPSVFIFPPSDEQLKSGTASVVCLLNNFYPREAKVQWKVDNALQSGNSQESVTEQDSKDSTYSLSSTLTLSKADYEKHKVYACEVTHQGLSSPVTKSFNRGEC
B6: CD137 #10 (A49.V48) + FAP #2 (A11 VK3/VH3) (bispecific antibody, human IgG1, kappa, L234A L235A)
heavy: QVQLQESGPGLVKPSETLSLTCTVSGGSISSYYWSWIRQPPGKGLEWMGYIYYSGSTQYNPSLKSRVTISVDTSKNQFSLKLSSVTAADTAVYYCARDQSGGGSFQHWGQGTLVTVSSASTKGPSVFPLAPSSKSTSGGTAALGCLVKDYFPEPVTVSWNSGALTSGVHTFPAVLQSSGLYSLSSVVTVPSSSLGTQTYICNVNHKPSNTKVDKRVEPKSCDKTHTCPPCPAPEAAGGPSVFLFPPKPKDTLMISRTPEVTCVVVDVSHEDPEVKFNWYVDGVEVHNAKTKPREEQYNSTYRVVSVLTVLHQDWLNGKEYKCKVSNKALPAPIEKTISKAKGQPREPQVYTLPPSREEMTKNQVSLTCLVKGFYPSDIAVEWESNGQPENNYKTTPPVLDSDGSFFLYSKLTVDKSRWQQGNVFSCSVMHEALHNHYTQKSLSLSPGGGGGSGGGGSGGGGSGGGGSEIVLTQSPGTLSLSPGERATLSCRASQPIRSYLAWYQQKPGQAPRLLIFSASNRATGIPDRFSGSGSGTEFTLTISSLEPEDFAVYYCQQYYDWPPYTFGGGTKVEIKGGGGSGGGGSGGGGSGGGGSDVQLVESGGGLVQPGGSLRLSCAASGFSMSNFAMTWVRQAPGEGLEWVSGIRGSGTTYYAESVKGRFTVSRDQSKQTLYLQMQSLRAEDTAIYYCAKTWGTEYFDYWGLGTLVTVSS
light: EIVMTQSPLSLPVTPGEPASISCRSSQSLLYSQGYNHLDWYLQKPGQSPQLLIYGGSNRASGVPDRFSGSGSGTDFTLKISRVEAEDVGVYYCMQALQTPPTFGQGTKLEIKRTVAAPSVFIFPPSDEQLKSGTASVVCLLNNFYPREAKVQWKVDNALQSGNSQESVTEQDSKDSTYSLSSTLTLSKADYEKHKVYACEVTHQGLSSPVTKSFNRGEC
B7: CD137 #10 (A49.V48) + FAP #5 (C3 VK1/VH4) (bispecific antibody, human IgG1, kappa, L234A L235A)
heavy: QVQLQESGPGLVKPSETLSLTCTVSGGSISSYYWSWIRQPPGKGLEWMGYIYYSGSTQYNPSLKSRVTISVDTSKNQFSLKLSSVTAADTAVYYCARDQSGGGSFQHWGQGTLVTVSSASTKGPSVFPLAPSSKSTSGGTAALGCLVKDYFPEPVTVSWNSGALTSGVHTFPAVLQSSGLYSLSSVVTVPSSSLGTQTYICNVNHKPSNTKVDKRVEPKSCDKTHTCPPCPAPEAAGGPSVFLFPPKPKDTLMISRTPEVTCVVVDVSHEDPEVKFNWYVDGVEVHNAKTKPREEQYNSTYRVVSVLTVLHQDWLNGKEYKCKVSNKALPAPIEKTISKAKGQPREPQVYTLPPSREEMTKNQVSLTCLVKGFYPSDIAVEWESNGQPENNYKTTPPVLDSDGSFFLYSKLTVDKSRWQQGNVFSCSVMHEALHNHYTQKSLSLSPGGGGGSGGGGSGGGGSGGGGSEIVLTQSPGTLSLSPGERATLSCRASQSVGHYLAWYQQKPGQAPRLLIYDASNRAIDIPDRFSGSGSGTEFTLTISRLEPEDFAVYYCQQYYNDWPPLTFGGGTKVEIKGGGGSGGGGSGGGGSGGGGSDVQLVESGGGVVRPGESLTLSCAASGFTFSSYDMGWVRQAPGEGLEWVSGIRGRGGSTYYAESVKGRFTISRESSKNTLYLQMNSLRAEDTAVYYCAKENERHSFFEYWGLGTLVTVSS
light: EIVMTQSPLSLPVTPGEPASISCRSSQSLLYSQGYNHLDWYLQKPGQSPQLLIYGGSNRASGVPDRFSGSGSGTDFTLKISRVEAEDVGVYYCMQALQTPPTFGQGTKLEIKRTVAAPSVFIFPPSDEQLKSGTASVVCLLNNFYPREAKVQWKVDNALQSGNSQESVTEQDSKDSTYSLSSTLTLSKADYEKHKVYACEVTHQGLSSPVTKSFNRGEC
B8: CD137 #9 (A49.V47) + FAP #3 (A11 VK7/VH1) (bispecific antibody, human IgG1, kappa, L234A L235A)
heavy: not shown
light: EIVMTQSPLSLPVTPGEPASISCRSSQSLLYSQGYNHLDWYLQKPGQSPQLLIYGGSNRASGVPDRFSGSGSGTDFTLKISRVEAEDVGVYYCMQALQTPPTFGQGTKLEIKRTVAAPSVFIFPPSDEQLKSGTASVVCLLNNFYPREAKVQWKVDNALQSGNSQESVTEQDSKDSTYSLSSTLTLSKADYEKHKVYACEVTHQGLSSPVTKSFNRGEC
B9: CD137 #9 (A49.V47) + FAP #5 (C3 VK1/VH4) (bispecific antibody, human IgG1, kappa, L234A L235A)
heavy: not shown
light: EIVMTQSPLSLPVTPGEPASISCRSSQSLLYSQGYNHLDWYLQKPGQSPQLLIYGGSNRASGVPDRFSGSGSGTDFTLKISRVEAEDVGVYYCMQALQTPPTFGQGTKLEIKRTVAAPSVFIFPPSDEQLKSGTASVVCLLNNFYPREAKVQWKVDNALQSGNSQESVTEQDSKDSTYSLSSTLTLSKADYEKHKVYACEVTHQGLSSPVTKSFNRGEC
B10: CD137 #9 (A49.V47) + FAP #2 (A11 VK3/VH3) (bispecific antibody, human IgG1, kappa, L234A L235A)
heavy: not shown
light: EIVMTQSPLSLPVTPGEPASISCRSSQSLLYSQGYNHLDWYLQKPGQSPQLLIYGGSNRASGVPDRFSGSGSGTDFTLKISRVEAEDVGVYYCMQALQTPPTFGQGTKLEIKRTVAAPSVFIFPPSDEQLKSGTASVVCLLNNFYPREAKVQWKVDNALQSGNSQESVTEQDSKDSTYSLSSTLTLSKADYEKHKVYACEVTHQGLSSPVTKSFNRGEC
B11: CD137 #2 (B21.V16) + FAP #3 (A11 VK7/VH1) (bispecific antibody, human IgG1, kappa, L234A L235A)
heavy: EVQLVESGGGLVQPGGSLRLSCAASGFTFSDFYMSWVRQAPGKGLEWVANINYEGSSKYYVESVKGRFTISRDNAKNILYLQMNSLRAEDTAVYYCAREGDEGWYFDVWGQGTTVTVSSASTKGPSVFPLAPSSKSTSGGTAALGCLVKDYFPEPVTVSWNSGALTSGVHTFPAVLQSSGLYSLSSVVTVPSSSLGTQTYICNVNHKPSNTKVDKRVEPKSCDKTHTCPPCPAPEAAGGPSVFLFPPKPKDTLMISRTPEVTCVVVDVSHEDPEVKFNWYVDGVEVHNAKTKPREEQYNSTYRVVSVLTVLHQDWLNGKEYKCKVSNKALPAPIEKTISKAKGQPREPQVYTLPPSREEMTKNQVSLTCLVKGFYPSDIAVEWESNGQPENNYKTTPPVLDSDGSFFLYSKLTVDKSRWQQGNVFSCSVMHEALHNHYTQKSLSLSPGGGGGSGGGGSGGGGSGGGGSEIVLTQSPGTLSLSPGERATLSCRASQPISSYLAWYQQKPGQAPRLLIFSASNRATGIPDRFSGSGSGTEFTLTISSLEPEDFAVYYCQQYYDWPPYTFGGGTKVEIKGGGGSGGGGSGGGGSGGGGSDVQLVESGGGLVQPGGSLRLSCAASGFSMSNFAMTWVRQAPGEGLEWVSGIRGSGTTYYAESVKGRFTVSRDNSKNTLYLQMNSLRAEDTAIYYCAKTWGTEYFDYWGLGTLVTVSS
light: DIQMTQSPSSLSASVGDRVTITCKASQDISSAVAWYQQKPGKAPKLLIYSASSRYTGVPSRFSGSGSGTDFTLTISSLQPEDFAVYYCQQHYSNPWTFGQGTKLEIKRTVAAPSVFIFPPSDEQLKSGTASVVCLLNNFYPREAKVQWKVDNALQSGNSQESVTEQDSKDSTYSLSSTLTLSKADYEKHKVYACEVTHQGLSSPVTKSFNRGEC

target: T1, Human CD137 on Jurkat cells (human, UniProt Q07011 24-255); assay: cell-based or functional assay; parameters: IC90; Jurkat-CD137 NFkB-luciferase, HT1080-FAP co-culture / EC90; Jurkat-CD137 NFkB-luciferase, HT1080-FAP co-culture: unit not given beside the values

Going from B1 to B2, the “EC90; Jurkat-CD137 NFkB-luciferase, HT1080-FAP co-culture” value falls from 2.41 to 1.42.

Going from B3 to B4, the “EC90; Jurkat-CD137 NFkB-luciferase, HT1080-FAP co-culture” value rises from 0.65 to 2.18.

Going from B5 to B6, the “EC90; Jurkat-CD137 NFkB-luciferase, HT1080-FAP co-culture” value rises from 1.91 to 2.57.

Going from B7 to B8, the “EC90; Jurkat-CD137 NFkB-luciferase, HT1080-FAP co-culture” value falls from 6.24 to 1.65.

Going from B9 to B10, the “EC90; Jurkat-CD137 NFkB-luciferase, HT1080-FAP co-culture” value falls from 4.23 to 3.01.

Going from B1 to B2, the “IC90; Jurkat-CD137 NFkB-luciferase, HT1080-FAP co-culture” value falls from 144 to 69.6.

Compared with B3, B4 is higher in “IC90; Jurkat-CD137 NFkB-luciferase, HT1080-FAP co-culture” value: 46.9 for the first, 87.8 for the second.

Going from B5 to B6, the “IC90; Jurkat-CD137 NFkB-luciferase, HT1080-FAP co-culture” value rises from 86.7 to 137.

Compared with B7, B8 is lower in “IC90; Jurkat-CD137 NFkB-luciferase, HT1080-FAP co-culture” value: 700 for the first, 1.07 for the second.

First: B9
Second: B10
The “IC90; Jurkat-CD137 NFkB-luciferase, HT1080-FAP co-culture” value of the first is higher: 742 for the first, 93.8 for the second.

First: B1
Second: B2
The “Total AUC; Jurkat-CD137 NFkB-luciferase, HT1080-FAP co-culture” value (“Total AUC; Jurkat-CD137 NFkB-luciferase” for short) of the first is lower: 1.9e+06 for the first, 2.4e+06 for the second.

Compared with B3, B4 is lower in “Total AUC; Jurkat-CD137 NFkB-luciferase” value: 3.3e+06 for the first, 2.3e+06 for the second.

Compared with B5, B6 is lower in “Total AUC; Jurkat-CD137 NFkB-luciferase” value: 1.26e+07 for the first, 1.13e+07 for the second.

First: B7
Second: B8
The “Total AUC; Jurkat-CD137 NFkB-luciferase” value of the first is higher: 1.13e+07 for the first, 9.5e+06 for the second.

Going from B9 to B10, the “Total AUC; Jurkat-CD137 NFkB-luciferase” value falls from 7.8e+06 to 7.6e+06.

target: T1, Human CD137 on Jurkat cells; assay: cell-based or functional assay; remark: another data set of the same source

First: B11
Second: B3
The “Average EC50; Jurkat-CD137 NFkB-luciferase, HT1080-FAP co-culture” value of the first is 3.3-fold lower: 0.082 nM for the first, 0.273 nM for the second.

B11 and B3 are within 1.5-fold of each other in “Average EC90; Jurkat-CD137 NFkB-luciferase, HT1080-FAP co-culture” value: 0.613 nM for the first, 0.738 nM for the second.

Compared with B11, B3 is 2.5-fold higher in “Average IC50; Jurkat-CD137 NFkB-luciferase, HT1080-FAP co-culture” value: 361 nM for the first, 888 nM for the second.

First: B11
Second: B3
The “Average IC90; Jurkat-CD137 NFkB-luciferase, HT1080-FAP co-culture” value of the first is 1.7-fold lower: 48.4 nM for the first, 84 nM for the second.

Compared with B11, B3 is lower in “Ratio IC50/EC50; Jurkat-CD137 NFkB-luciferase, HT1080-FAP co-culture” value: 4380 for the first, 3260 for the second.

Compared with B11, B3 is higher in “Ratio IC90/EC90; Jurkat-CD137 NFkB-luciferase, HT1080-FAP co-culture” value: 79.1 for the first, 114 for the second.
